Experimental data: patent US20160272683A1 (Novo Nordisk, published 2016)
Numbered stars: 1 amine (or outer) side, 2 acyl side, 3 side chain; on linkers, the order of the positions; unused ones are H or OH. * marks the point of attachment. C20 diacid = O=C(O)CCCCCCCCCCCCCCCCCCC(=O)*; C18 diacid = O=C(O)CCCCCCCCCCCCCCCCC(=O)*; γGlu = O=C(O)[C@H](CCC(=O)[*:2])N[*:1]

T1: human amylin 3(a) receptor (human calcitonin receptor co-expressed with RAMP-3) on BHK570/CRE-luc cells (human, UniProt P30988 25-474; O60896 24-148)
T1 sequence (looked up) 1: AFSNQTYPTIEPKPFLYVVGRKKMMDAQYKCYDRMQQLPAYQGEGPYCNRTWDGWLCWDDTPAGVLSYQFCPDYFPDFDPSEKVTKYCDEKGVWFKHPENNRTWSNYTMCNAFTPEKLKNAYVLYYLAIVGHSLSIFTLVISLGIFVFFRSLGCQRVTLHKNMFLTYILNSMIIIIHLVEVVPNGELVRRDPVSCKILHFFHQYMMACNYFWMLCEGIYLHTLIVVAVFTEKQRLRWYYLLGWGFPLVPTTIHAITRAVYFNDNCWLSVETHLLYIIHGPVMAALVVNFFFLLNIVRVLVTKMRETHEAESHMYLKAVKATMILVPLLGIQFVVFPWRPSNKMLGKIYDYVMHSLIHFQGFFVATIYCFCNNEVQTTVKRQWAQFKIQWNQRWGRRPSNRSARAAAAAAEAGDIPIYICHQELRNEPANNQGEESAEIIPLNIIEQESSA
T1 sequence (looked up) 2: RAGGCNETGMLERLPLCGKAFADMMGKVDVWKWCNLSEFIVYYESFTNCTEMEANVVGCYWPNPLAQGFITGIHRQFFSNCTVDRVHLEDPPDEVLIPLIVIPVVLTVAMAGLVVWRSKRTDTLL

T2: human calcitonin receptor on BHK570/CRE-luc cells (human, UniProt P30988 25-474)
T2 sequence (looked up): T1 sequence (looked up) 1

B1: [N-terminal(C20 diacid-gGlu), des1, 12H, 25H, 30T, 31G, 32T]mimylin (peptide)
peptide: {C20 diacid-γGlu}-ASELSTAALGHLSAELHELATLPHTETGTGTP-NH2
SMILES: CC(C)C[C@H](NC(=O)[C@H](C)NC(=O)[C@H](C)NC(=O)[C@@H](NC(=O)[C@H](CO)NC(=O)[C@H](CC(C)C)NC(=O)[C@H](CCC(=O)O)NC(=O)[C@H](CO)NC(=O)[C@H](C)NC(=O)CC[C@H](NC(=O)CCCCCCCCCCCCCCCCCCC(=O)O)C(=O)O)[C@@H](C)O)C(=O)NCC(=O)N[C@@H](Cc1c[nH]cn1)C(=O)N[C@@H](CC(C)C)C(=O)N[C@@H](CO)C(=O)N[C@@H](C)C(=O)N[C@@H](CCC(=O)O)C(=O)N[C@@H](CC(C)C)C(=O)N[C@@H](Cc1c[nH]cn1)C(=O)N[C@@H](CCC(=O)O)C(=O)N[C@@H](CC(C)C)C(=O)N[C@@H](C)C(=O)N[C@H](C(=O)N[C@@H](CC(C)C)C(=O)N1CCC[C@H]1C(=O)N[C@@H](Cc1c[nH]cn1)C(=O)N[C@H](C(=O)N[C@@H](CCC(=O)O)C(=O)N[C@H](C(=O)NCC(=O)N[C@H](C(=O)NCC(=O)N[C@H](C(=O)N1CCC[C@H]1C(N)=O)[C@@H](C)O)[C@@H](C)O)[C@@H](C)O)[C@@H](C)O)[C@@H](C)O
B2: [N-terminal(C18 diacid-gGlu), des1, 5V, 9V, 10V, 30S, 31G]mimylin (peptide)
peptide: {C18 diacid-γGlu}-ASEVSTAVVGRLSAELHELATLPRTETGSGSP-NH2
SMILES: CC(C)C[C@H](NC(=O)[C@H](CCC(=O)O)NC(=O)[C@H](Cc1c[nH]cn1)NC(=O)[C@H](CC(C)C)NC(=O)[C@H](CCC(=O)O)NC(=O)[C@H](C)NC(=O)[C@H](CO)NC(=O)[C@H](CC(C)C)NC(=O)[C@H](CCCNC(=N)N)NC(=O)CNC(=O)[C@@H](NC(=O)[C@@H](NC(=O)[C@H](C)NC(=O)[C@@H](NC(=O)[C@H](CO)NC(=O)[C@@H](NC(=O)[C@H](CCC(=O)O)NC(=O)[C@H](CO)NC(=O)[C@H](C)NC(=O)CC[C@H](NC(=O)CCCCCCCCCCCCCCCCC(=O)O)C(=O)O)C(C)C)[C@@H](C)O)C(C)C)C(C)C)C(=O)N[C@@H](C)C(=O)N[C@H](C(=O)N[C@@H](CC(C)C)C(=O)N1CCC[C@H]1C(=O)N[C@@H](CCCNC(=N)N)C(=O)N[C@H](C(=O)N[C@@H](CCC(=O)O)C(=O)N[C@H](C(=O)NCC(=O)N[C@@H](CO)C(=O)NCC(=O)N[C@@H](CO)C(=O)N1CCC[C@H]1C(N)=O)[C@@H](C)O)[C@@H](C)O)[C@@H](C)O
B3: [N-terminal(C20 diacid-gGlu), des1, 4G, 9V, 23Y, 30S, 31G, 32T]mimylin (peptide)
peptide: {C20 diacid-γGlu}-ASGLSTAVLGRLSAELHELATYPRTETGSGTP-NH2
SMILES: CC(C)C[C@H](NC(=O)CNC(=O)[C@H](CO)NC(=O)[C@H](C)NC(=O)CC[C@H](NC(=O)CCCCCCCCCCCCCCCCCCC(=O)O)C(=O)O)C(=O)N[C@@H](CO)C(=O)N[C@H](C(=O)N[C@@H](C)C(=O)N[C@H](C(=O)N[C@@H](CC(C)C)C(=O)NCC(=O)N[C@@H](CCCNC(=N)N)C(=O)N[C@@H](CC(C)C)C(=O)N[C@@H](CO)C(=O)N[C@@H](C)C(=O)N[C@@H](CCC(=O)O)C(=O)N[C@@H](CC(C)C)C(=O)N[C@@H](Cc1c[nH]cn1)C(=O)N[C@@H](CCC(=O)O)C(=O)N[C@@H](CC(C)C)C(=O)N[C@@H](C)C(=O)N[C@H](C(=O)N[C@@H](Cc1ccc(O)cc1)C(=O)N1CCC[C@H]1C(=O)N[C@@H](CCCNC(=N)N)C(=O)N[C@H](C(=O)N[C@@H](CCC(=O)O)C(=O)N[C@H](C(=O)NCC(=O)N[C@@H](CO)C(=O)NCC(=O)N[C@H](C(=O)N1CCC[C@H]1C(N)=O)[C@@H](C)O)[C@@H](C)O)[C@@H](C)O)[C@@H](C)O)C(C)C)[C@@H](C)O
B4: [N-terminal(C20 diacid-gGlu), des1, 21S, 23Y, 30S, 31G, 33Y]mimylin (peptide)
peptide: {C20 diacid-γGlu}-ASELSTAALGRLSAELHELSTYPRTETGSGSY-NH2
SMILES: CC(C)C[C@H](NC(=O)[C@H](C)NC(=O)[C@H](C)NC(=O)[C@@H](NC(=O)[C@H](CO)NC(=O)[C@H](CC(C)C)NC(=O)[C@H](CCC(=O)O)NC(=O)[C@H](CO)NC(=O)[C@H](C)NC(=O)CC[C@H](NC(=O)CCCCCCCCCCCCCCCCCCC(=O)O)C(=O)O)[C@@H](C)O)C(=O)NCC(=O)N[C@@H](CCCNC(=N)N)C(=O)N[C@@H](CC(C)C)C(=O)N[C@@H](CO)C(=O)N[C@@H](C)C(=O)N[C@@H](CCC(=O)O)C(=O)N[C@@H](CC(C)C)C(=O)N[C@@H](Cc1c[nH]cn1)C(=O)N[C@@H](CCC(=O)O)C(=O)N[C@@H](CC(C)C)C(=O)N[C@@H](CO)C(=O)N[C@H](C(=O)N[C@@H](Cc1ccc(O)cc1)C(=O)N1CCC[C@H]1C(=O)N[C@@H](CCCNC(=N)N)C(=O)N[C@H](C(=O)N[C@@H](CCC(=O)O)C(=O)N[C@H](C(=O)NCC(=O)N[C@@H](CO)C(=O)NCC(=O)N[C@@H](CO)C(=O)N[C@@H](Cc1ccc(O)cc1)C(N)=O)[C@@H](C)O)[C@@H](C)O)[C@@H](C)O
B5: [N-terminal(C20 diacid-gGlu), des1, 9T, 21S, 23Y, 30S, 31G]mimylin (peptide)
peptide: {C20 diacid-γGlu}-ASELSTATLGRLSAELHELSTYPRTETGSGSP-NH2
SMILES: CC(C)C[C@H](NC(=O)[C@H](CCCNC(=N)N)NC(=O)CNC(=O)[C@H](CC(C)C)NC(=O)[C@@H](NC(=O)[C@H](C)NC(=O)[C@@H](NC(=O)[C@H](CO)NC(=O)[C@H](CC(C)C)NC(=O)[C@H](CCC(=O)O)NC(=O)[C@H](CO)NC(=O)[C@H](C)NC(=O)CC[C@H](NC(=O)CCCCCCCCCCCCCCCCCCC(=O)O)C(=O)O)[C@@H](C)O)[C@@H](C)O)C(=O)N[C@@H](CO)C(=O)N[C@@H](C)C(=O)N[C@@H](CCC(=O)O)C(=O)N[C@@H](CC(C)C)C(=O)N[C@@H](Cc1c[nH]cn1)C(=O)N[C@@H](CCC(=O)O)C(=O)N[C@@H](CC(C)C)C(=O)N[C@@H](CO)C(=O)N[C@H](C(=O)N[C@@H](Cc1ccc(O)cc1)C(=O)N1CCC[C@H]1C(=O)N[C@@H](CCCNC(=N)N)C(=O)N[C@H](C(=O)N[C@@H](CCC(=O)O)C(=O)N[C@H](C(=O)NCC(=O)N[C@@H](CO)C(=O)NCC(=O)N[C@@H](CO)C(=O)N1CCC[C@H]1C(N)=O)[C@@H](C)O)[C@@H](C)O)[C@@H](C)O

What was measured:
[1] = target: T1, human amylin 3(a) receptor (human …); assay: cell-based or functional assay
[2] = target: T2, human calcitonin receptor on …; assay: cell-based or functional assay

Binder | hAmylin-R funct. EC50 (pM), tested with HSA [1] | hCTR funct. EC50 (pM), tested with HSA [2]
B1 | 729 pM | 109 pM
{C18 diacid-γGlu}-ASELTTAVLGRLSAELHELATLPRTETGSGTP-NH2 [[N-terminal(C18 diacid-gGlu), des1, 6T, 9V, 30S, 31G, 32T]mimylin] | 30 pM | 75 pM
B2 | 38 pM | 11 pM
B3 | 66 pM | 35 pM
B4 | 64 pM | 48 pM
{C18 diacid-γGlu}-ASELTTAVLGRLSAELHELATLPRTETGTGTP-NH2 [[N-terminal(C18 diacid-gGlu), des1, 6T, 9V, 30T, 31G, 32T]mimylin] | 52 pM | 13 pM
B5 | 150 pM | 105 pM
